Measurements reported in article PMC4304120.

Tests used:
thrombin [1] = target: thrombin
thrombin [2] = assay: SPR; BIAcore T100; thrombin (2000 RU) amine-coupled to a CM5 chip; RGD-hirudin or mutants injected at 30 uL/min in 10 mM HEPES, 150 mM NaCl, 0.005% Surfactant P20, pH 7.5; 1:1 Langmuir fit, KD calculated from ka and kd

Substance	anti-thrombin specific activity (Titration Testing Method, plasma clotting) (thrombin [1]) [ATU/mg]	Kd (thrombin [2]) [nM]	koff (thrombin [2]) [s⁻¹]	kon (thrombin [2]) [M⁻¹ s⁻¹]
RGD-hirudin D55A	12000	1030	0.000383	371
RGD-hirudin Y3A	4000	–	0.00288	–
RGD-hirudin E57A	11000	2410	0.000374	155
RGD-hirudin S50A	16000	35	3.94e-05	1120
RGD-hirudin I59A	9000	19000	0.00139	73
RGD-hirudin Q53A	14000	570	3.37e-05	59.2
recombinant RGD-hirudin	18000	15.5	2.73e-05	1770
